Test results: US20250171562A1

Molecular target: mixture of three Der p 2 specific recombinant human IgE clones H10, H12, P4E (human) (UniProt P01854)
Assay: RBL-SX38 IgE displacement, FACS

Sequence of mixture of three Der p 2 specific recombinant human IgE clones H10, H12, P4E (human) (P01854 other isoform, or with tags, fused parts or gaps): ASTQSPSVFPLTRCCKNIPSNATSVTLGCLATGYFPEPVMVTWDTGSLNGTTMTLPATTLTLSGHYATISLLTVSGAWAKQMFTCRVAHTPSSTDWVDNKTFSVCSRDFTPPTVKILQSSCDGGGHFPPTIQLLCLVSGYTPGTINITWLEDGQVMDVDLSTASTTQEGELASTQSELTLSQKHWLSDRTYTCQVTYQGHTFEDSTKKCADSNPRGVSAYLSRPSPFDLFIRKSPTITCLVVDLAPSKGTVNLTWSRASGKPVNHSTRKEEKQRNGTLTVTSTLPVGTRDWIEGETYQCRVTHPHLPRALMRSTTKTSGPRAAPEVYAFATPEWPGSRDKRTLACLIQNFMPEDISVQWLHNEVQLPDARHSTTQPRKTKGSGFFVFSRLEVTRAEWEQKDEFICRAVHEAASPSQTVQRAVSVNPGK

| Binder | EC50 | Max effect/effect 1 µM |
| --- | --- | --- |
| NIgG4B2A1(RS) (Fc fusion) chain 1: QVQLVESGGGLVQAGGSLRLSCAVFGSTFSNNVADWYRQAPGKQRELVARISASGATREYGDSVKGRFTISRDDAKNTMYLQMNNLKPEDTAVYRCHKIEWEDLSRKDYWGQGTQVTVSRSGPPCPPCPAPEFLGGPSVFLFPPKPKDTLMISRTPEVTCVVVDVSQEDPEVQFNWYVDGVEVHNAKTKPREEQFNSTYRVVSVLTVLHQDWLNGKEYKCKVSNKGLPSSIEKTISKAKGQPREPQVYTLPPCQEEMTKNQVSLWCLVKGFYPSDIAVEWESNGQPENNYKTTPPVLDSDGSFFLYSRLTVDKSRWQEGNVFSCSVMHEALHNHYTQKSLSLSLGK chain 2: EVQLLESGGGLVQPGGSLRLSCAASGFTFGNYDMAWVRQAPGKRPEWVSSIDTGGDITHYADSVKGRFTISRDNAKNTLYLQMNSLRPEDTAVYWCATDEEYALGPNEFDYYGQGTLVTVSSRSGPPCPPCPAPEFLGGPSVFLFPPKPKDTLMISRTPEVTCVVVDVSQEDPEVQFNWYVDGVEVHNAKTKPREEQFNSTYRVVSVLTVLHQDWLNGKEYKCKVSNKGLPSSIEKTISKAKGQPREPQVCTLPPSQEEMTKNQVSLSCAVKGFYPSDIAVEWESNGQPENNYKTTPPVLDSDGSFFLVSRLTVDKSRWQEGNVFSCSVMHEALHNHYTQKSLSLSLGK | 0.4 nM | 99% |
| NIgG4B2A1(G4S)1 (Fc fusion) chain 1: QVQLVESGGGLVQAGGSLRLSCAVFGSTFSNNVADWYRQAPGKQRELVARISASGATREYGDSVKGRFTISRDDAKNTMYLQMNNLKPEDTAVYRCHKIEWEDLSRKDYWGQGTQVTVSGGGGSGPPCPPCPAPEFLGGPSVFLFPPKPKDTLMISRTPEVTCVVVDVSQEDPEVQFNWYVDGVEVHNAKTKPREEQFNSTYRVVSVLTVLHQDWLNGKEYKCKVSNKGLPSSIEKTISKAKGQPREPQVYTLPPCQEEMTKNQVSLWCLVKGFYPSDIAVEWESNGQPENNYKTTPPVLDSDGSFFLYSRLTVDKSRWQEGNVFSCSVMHEALHNHYTQKSLSLSLGK chain 2: EVQLLESGGGLVQPGGSLRLSCAASGFTFGNYDMAWVRQAPGKRPEWVSSIDTGGDITHYADSVKGRFTISRDNAKNTLYLQMNSLRPEDTAVYWCATDEEYALGPNEFDYYGQGTLVTVSSGGGGSGPPCPPCPAPEFLGGPSVFLFPPKPKDTLMISRTPEVTCVVVDVSQEDPEVQFNWYVDGVEVHNAKTKPREEQFNSTYRVVSVLTVLHQDWLNGKEYKCKVSNKGLPSSIEKTISKAKGQPREPQVCTLPPSQEEMTKNQVSLSCAVKGFYPSDIAVEWESNGQPENNYKTTPPVLDSDGSFFLVSRLTVDKSRWQEGNVFSCSVMHEALHNHYTQKSLSLSLGK | 0.3 nM | 97% |
| NIgG4B2A1(G4S)2 (Fc fusion) chain 1: QVQLVESGGGLVQAGGSLRLSCAVFGSTFSNNVADWYRQAPGKQRELVARISASGATREYGDSVKGRFTISRDDAKNTMYLQMNNLKPEDTAVYRCHKIEWEDLSRKDYWGQGTQVTVSGGGGSGGGGSGPPCPPCPAPEFLGGPSVFLFPPKPKDTLMISRTPEVTCVVVDVSQEDPEVQFNWYVDGVEVHNAKTKPREEQFNSTYRVVSVLTVLHQDWLNGKEYKCKVSNKGLPSSIEKTISKAKGQPREPQVYTLPPCQEEMTKNQVSLWCLVKGFYPSDIAVEWESNGQPENNYKTTPPVLDSDGSFFLYSRLTVDKSRWQEGNVFSCSVMHEALHNHYTQKSLSLSLGK chain 2: EVQLLESGGGLVQPGGSLRLSCAASGFTFGNYDMAWVRQAPGKRPEWVSSIDTGGDITHYADSVKGRFTISRDNAKNTLYLQMNSLRPEDTAVYWCATDEEYALGPNEFDYYGQGTLVTVSSGGGGSGGGGSGPPCPPCPAPEFLGGPSVFLFPPKPKDTLMISRTPEVTCVVVDVSQEDPEVQFNWYVDGVEVHNAKTKPREEQFNSTYRVVSVLTVLHQDWLNGKEYKCKVSNKGLPSSIEKTISKAKGQPREPQVCTLPPSQEEMTKNQVSLSCAVKGFYPSDIAVEWESNGQPENNYKTTPPVLDSDGSFFLVSRLTVDKSRWQEGNVFSCSVMHEALHNHYTQKSLSLSLGK | 0.3 nM | 98% |
| NIgG4B2A1(G4S)3 (Fc fusion) chain 1: QVQLVESGGGLVQAGGSLRLSCAVFGSTFSNNVADWYRQAPGKQRELVARISASGATREYGDSVKGRFTISRDDAKNTMYLQMNNLKPEDTAVYRCHKIEWEDLSRKDYWGQGTQVTVSGGGGSGGGGSGGGGSGPPCPPCPAPEFLGGPSVFLFPPKPKDTLMISRTPEVTCVVVDVSQEDPEVQFNWYVDGVEVHNAKTKPREEQFNSTYRVVSVLTVLHQDWLNGKEYKCKVSNKGLPSSIEKTISKAKGQPREPQVYTLPPCQEEMTKNQVSLWCLVKGFYPSDIAVEWESNGQPENNYKTTPPVLDSDGSFFLYSRLTVDKSRWQEGNVFSCSVMHEALHNHYTQKSLSLSLGK chain 2: EVQLLESGGGLVQPGGSLRLSCAASGFTFGNYDMAWVRQAPGKRPEWVSSIDTGGDITHYADSVKGRFTISRDNAKNTLYLQMNSLRPEDTAVYWCATDEEYALGPNEFDYYGQGTLVTVSSGGGGSGGGGSGGGGSGPPCPPCPAPEFLGGPSVFLFPPKPKDTLMISRTPEVTCVVVDVSQEDPEVQFNWYVDGVEVHNAKTKPREEQFNSTYRVVSVLTVLHQDWLNGKEYKCKVSNKGLPSSIEKTISKAKGQPREPQVCTLPPSQEEMTKNQVSLSCAVKGFYPSDIAVEWESNGQPENNYKTTPPVLDSDGSFFLVSRLTVDKSRWQEGNVFSCSVMHEALHNHYTQKSLSLSLGK | 0.5 nM | 98% |
| CIgG4B2A1(RS) (Fc fusion) chain 1: GPPCPPCPAPEFLGGPSVFLFPPKPKDTLMISRTPEVTCVVVDVSQEDPEVQFNWYVDGVEVHNAKTKPREEQFNSTYRVVSVLTVLHQDWLNGKEYKCKVSNKGLPSSIEKTISKAKGQPREPQVYTLPPCQEEMTKNQVSLWCLVKGFYPSDIAVEWESNGQPENNYKTTPPVLDSDGSFFLYSRLTVDKSRWQEGNVFSCSVMHEALHNHYTQKSLSLSLGKRSQVQLVESGGGLVQAGGSLRLSCAVFGSTFSNNVADWYRQAPGKQRELVARISASGATREYGDSVKGRFTISRDDAKNTMYLQMNNLKPEDTAVYRCHKIEWEDLSRKDYWGQGTQVTVS chain 2: GPPCPPCPAPEFLGGPSVFLFPPKPKDTLMISRTPEVTCVVVDVSQEDPEVQFNWYVDGVEVHNAKTKPREEQFNSTYRVVSVLTVLHQDWLNGKEYKCKVSNKGLPSSIEKTISKAKGQPREPQVCTLPPSQEEMTKNQVSLSCAVKGFYPSDIAVEWESNGQPENNYKTTPPVLDSDGSFFLVSRLTVDKSRWQEGNVFSCSVMHEALHNHYTQKSLSLSLGKRSEVQLLESGGGLVQPGGSLRLSCAASGFTFGNYDMAWVRQAPGKRPEWVSSIDTGGDITHYADSVKGRFTISRDNAKNTLYLQMNSLRPEDTAVYWCATDEEYALGPNEFDYYGQGTLVTVSS | 273 nM | 70% |
| CIgG4B2A1(G4S)1 (Fc fusion) chain 1: GPPCPPCPAPEFLGGPSVFLFPPKPKDTLMISRTPEVTCVVVDVSQEDPEVQFNWYVDGVEVHNAKTKPREEQFNSTYRVVSVLTVLHQDWLNGKEYKCKVSNKGLPSSIEKTISKAKGQPREPQVYTLPPCQEEMTKNQVSLWCLVKGFYPSDIAVEWESNGQPENNYKTTPPVLDSDGSFFLYSRLTVDKSRWQEGNVFSCSVMHEALHNHYTQKSLSLSLGKGGGGSQVQLVESGGGLVQAGGSLRLSCAVFGSTFSNNVADWYRQAPGKQRELVARISASGATREYGDSVKGRFTISRDDAKNTMYLQMNNLKPEDTAVYRCHKIEWEDLSRKDYWGQGTQVTVS chain 2: GPPCPPCPAPEFLGGPSVFLFPPKPKDTLMISRTPEVTCVVVDVSQEDPEVQFNWYVDGVEVHNAKTKPREEQFNSTYRVVSVLTVLHQDWLNGKEYKCKVSNKGLPSSIEKTISKAKGQPREPQVCTLPPSQEEMTKNQVSLSCAVKGFYPSDIAVEWESNGQPENNYKTTPPVLDSDGSFFLVSRLTVDKSRWQEGNVFSCSVMHEALHNHYTQKSLSLSLGKGGGGSEVQLLESGGGLVQPGGSLRLSCAASGFTFGNYDMAWVRQAPGKRPEWVSSIDTGGDITHYADSVKGRFTISRDNAKNTLYLQMNSLRPEDTAVYWCATDEEYALGPNEFDYYGQGTLVTVSS | 8.8 nM | 93% |
| CIgG4B2A1(G4S)2 (Fc fusion) chain 1: GPPCPPCPAPEFLGGPSVFLFPPKPKDTLMISRTPEVTCVVVDVSQEDPEVQFNWYVDGVEVHNAKTKPREEQFNSTYRVVSVLTVLHQDWLNGKEYKCKVSNKGLPSSIEKTISKAKGQPREPQVYTLPPCQEEMTKNQVSLWCLVKGFYPSDIAVEWESNGQPENNYKTTPPVLDSDGSFFLYSRLTVDKSRWQEGNVFSCSVMHEALHNHYTQKSLSLSLGKGGGGSGGGGSQVQLVESGGGLVQAGGSLRLSCAVFGSTFSNNVADWYRQAPGKQRELVARISASGATREYGDSVKGRFTISRDDAKNTMYLQMNNLKPEDTAVYRCHKIEWEDLSRKDYWGQGTQVTVS chain 2: GPPCPPCPAPEFLGGPSVFLFPPKPKDTLMISRTPEVTCVVVDVSQEDPEVQFNWYVDGVEVHNAKTKPREEQFNSTYRVVSVLTVLHQDWLNGKEYKCKVSNKGLPSSIEKTISKAKGQPREPQVCTLPPSQEEMTKNQVSLSCAVKGFYPSDIAVEWESNGQPENNYKTTPPVLDSDGSFFLVSRLTVDKSRWQEGNVFSCSVMHEALHNHYTQKSLSLSLGKGGGGSGGGGSEVQLLESGGGLVQPGGSLRLSCAASGFTFGNYDMAWVRQAPGKRPEWVSSIDTGGDITHYADSVKGRFTISRDNAKNTLYLQMNSLRPEDTAVYWCATDEEYALGPNEFDYYGQGTLVTVSS | 1.6 nM | 99% |
| CIgG4B2A1(G4S)3 (Fc fusion) chain 1: GPPCPPCPAPEFLGGPSVFLFPPKPKDTLMISRTPEVTCVVVDVSQEDPEVQFNWYVDGVEVHNAKTKPREEQFNSTYRVVSVLTVLHQDWLNGKEYKCKVSNKGLPSSIEKTISKAKGQPREPQVYTLPPCQEEMTKNQVSLWCLVKGFYPSDIAVEWESNGQPENNYKTTPPVLDSDGSFFLYSRLTVDKSRWQEGNVFSCSVMHEALHNHYTQKSLSLSLGKGGGGSGGGGSGGGGSQVQLVESGGGLVQAGGSLRLSCAVFGSTFSNNVADWYRQAPGKQRELVARISASGATREYGDSVKGRFTISRDDAKNTMYLQMNNLKPEDTAVYRCHKIEWEDLSRKDYWGQGTQVTVS chain 2: GPPCPPCPAPEFLGGPSVFLFPPKPKDTLMISRTPEVTCVVVDVSQEDPEVQFNWYVDGVEVHNAKTKPREEQFNSTYRVVSVLTVLHQDWLNGKEYKCKVSNKGLPSSIEKTISKAKGQPREPQVCTLPPSQEEMTKNQVSLSCAVKGFYPSDIAVEWESNGQPENNYKTTPPVLDSDGSFFLVSRLTVDKSRWQEGNVFSCSVMHEALHNHYTQKSLSLSLGKGGGGSGGGGSGGGGSEVQLLESGGGLVQPGGSLRLSCAASGFTFGNYDMAWVRQAPGKRPEWVSSIDTGGDITHYADSVKGRFTISRDNAKNTLYLQMNSLRPEDTAVYWCATDEEYALGPNEFDYYGQGTLVTVSS | 1.5 nM | 98% |
